The text below walks through data of patent publication US11124558B2, “Use of tetranectin and peptide agonists to treat inflammatory diseases” (The Feinstein Institutes for Medical Research, priority 2017, dated 2021).

The test system of assay [1] is lethal sepsis (CLP), Balb/C mice. The assay is described as follows: Lethal sepsis by cecal ligation and puncture (CLP), survival in mice. The following applies: male Balb/C mice, given intraperitoneally, survival monitored more than two weeks. Type of assay: in vivo. The method, then: FIG. 6A-6C: Recombinant TN protected mice against lethal endotoxemia and sepsis. Male Balb/C mice were subjected to lethal endotoxemia (LPS, 5 mg/kg, i.p., Panel A) or sepsis by cecal ligation and puncture (CLP, Panel B, C), and recombinant TN produced in HEK293 (Panel A, B) or E. coli (Panel C) was given intraperitoneally at indicated dosing regimens. Animal survival rates were monitored for more than two weeks to ensure no later death. Shown in Panel B and C is a summary of two independent experiments with similar results.
FIG. 9: N-terminal deletion TN mutant protected mice against lethal sepsis. Male Balb/C mice were subjected to lethal sepsis by cecal ligation and puncture (CLP), and recombinant deletion mutant (ΔTN) was given intrapeitoneally at indicated dosing regimens. Animal survival rates were monitored for more than two weeks to ensure no later death. Shown was a summary of two independent experiments with similar results.
FIG. 10: TN peptide agonist (P11) protected mice against lethal sepsis. Male Balb/C mice were subjected to lethal sepsis by cecal ligation and puncture (CLP), and TN peptide agonist, (P11, […]) (SEQ ID NO:11) was given intrapeitoneally at indicated dosing regimens. Animal survival rates were monitored for more than two weeks to ensure no later death. Shown was a summary of two independent experiments with N=8-18 animals per group.
FIG. 13A-13B: Tetranectin peptide agonists (P2 and P2-M/Nle) protected mice against lethal sepsis. Male Balb/C mice were subjected to lethal sepsis by cecal ligation and puncture (CLP), and TN peptide agonist, P2 (55-KVHMKCFLAFTQTKTF-70) (13A) (SEQ ID NO:2) or P2-M/Nle (54-TKVH(Nle)KSFLAFTQTKT-69) (13B) (SEQ ID NO:13) was given intraperitoneally at indicated dosing regimens. Animal survival rates were monitored for more than two weeks to ensure no later death. Shown was a summary of independent experiment with N=10 animals per group. The Kaplan-Meier method was used to compare the difference in mortality rates between groups. *, P<0.05 versus “CLP+Vehicle” group.
Effects of TN or peptide agonist on LSI. Balb/C mice (both male and female, 7-8 weeks, 20-25 g) are subjected to lethal endotoxemia or sepsis as described above, and the recombinant TN is injected (i.p.) at various doses and time points (2, 24, and 48 h) after the onset of endotoxemia or sepsis. Their effects on the outcomes of LSI is assessed by comparing the long-term (two-week) survival rates between the TN-treated groups with saline vehicle-treated controls. By varying the time points (e.g., 2, 12, 24 or 36 h) when the first dose of TN will be given to animals, the therapeutic windows for the TN-based therapy is estimated. […] It will be critical to continue these exciting experiments using other dosing regimens to further validate TN's protective role in LSI.
To explore the therapeutic potential of the TN-based strategies, the efficacy of TN-specific peptide agonists that would recapitulate the HMGB1-inhibiting capacities is tested using both animal models of lethal endotoxemia and sepsis. A series of peptide agonists have been designed, and chemically synthesized or biologically expressed as recombinant peptide (Table 1, FIG. 7). Peptide agonists will be given to the endotoxemic or septic mice intraperitoneally at various doses and time points after the onset of endotoxemia or sepsis. Their effects on the outcomes of LSI is assessed by comparing the long-term (two-week) survival rates between the peptide agonist groups and the saline vehicle-treated controls.
TN-specific peptide agonists are tested that would recapitulate the HMGB1-inhibiting capacities using both animal models of lethal endotoxemia and sepsis. Peptide agonists are given to the endotoxemic or septic mice intraperitoneally at various doses and time points after the onset of endotoxemia or sepsis. […]

The subject of assay [2] is GRO/CXCL1 and ENA-78/CXCL5 secretion, HuPBMCs. The assay is described as follows: Cytokine/chemokine secretion by HuPBMCs (Cytokine Antibody Arrays). Particulars: primary human monocytes / HuPBMCs, TN 20 μg/ml, 16 h. Type of assay: cell-based. The method, then:
Human blood was purchased from the Long Island Blood Bank, and HuPBMCs were isolated by density gradient centrifugation through Ficoll, and stimulated with recombinant TN (20 μg/ml) expressed in HEK293 or E. coli for 16 h. The extracellular levels of cytokines and chemokines were determined by Cytokine Antibody Arrays.
In light of the protective roles of these neutrophil-attracting chemokines, CXCL1/KC [67,68] and CXCL5/ENA-78 [69,70] in LSI, it is important to determine whether TN could modulate leukocyte infiltration to facilitate potential pathogen elimination during sepsis.

For the next assay, the system named is HMGB1 release. Put plainly: LPS/SAA-induced HMGB1 release, summary statement (cells not specified). Type of assay: cell-based.
The subject of assay [3] is HMGB1 release, murine macrophage-like RAW264.7 cells. Put plainly: SAA-induced HMGB1 release in RAW264.7 cells (Western blotting). Type of assay: cell-based. Particulars: 16 h, serum-free OPTI-MEM I. As to the method: Murine macrophage-like RAW264.7 cells were cultured in serum-free OPTI-MEM I medium, and stimulated with SAA in the absence of presence of ΔTN (residue 45-181) for 16 h at the indicated concentrations. The extracellular HMGB1 levels were determined by Western blotting, and expressed as % of stimulation in the presence of SAA alone.

“Also recorded” adds a separate entry of the source. Non-standard residues stand in square brackets, D forms with d. No end group written: not given here. Nle = CCCC[C@H](N)C(=O)O

“KVHMKCFLAFTQTKTF (listed as Homo sapiens) [Peptide P2]”: the “protection against lethal sepsis (animal survival)” value (“protection against lethal sepsis” for short) in assay [1] is “protected”.

In the case of “QPDGGKTENCAVLSGAANGKWFDKRCRD (listed as Homo sapiens) [Peptide P11]”, the “protection against lethal sepsis” value in assay [1] is “protected; also recorded: significant protection”; in assay [1] (listed as synthetic peptide corresponding to the plasminogen-binding region (residue 143-1)), “dose-dependent and significant protection”. Further, the “release of neutrophil-attracting chemokines (CXCL1/GRO-α/KC and CXCL5/ENA-78)” value in assay [2] is “specifically stimulated”. Also, the “attenuation of LPS/SAA-induced HMGB1 release” value in the assay on HMGB1 release is “dose-dependently attenuated”.

Turning to “TKVH(Nle)KSFLAFTQTKT (TKVH[Nle]KSFLAFTQTKT) [P2-M/Nle]”, the “protection against lethal sepsis” value in assay [1] was “protected”.

B1: P12: Recombinant N-terminal deletion mutant of TN, residue 45-181, carbohydrate recognition domain (CRD), expressed in E. coli, SEQ ID NO:12 (protein, listed as Homo sapiens)
chain: ALQTVCLKGTKVHMKCFLAFTQTKTFHEASEDCISRGGTLGTPQTGSENDALYEYLRQSVGNEAEIWLGLNDMAAEGTWVDMTGARIAYKNWETEITAQPDGGKTENCAVLSGAANGKWFDKRCRDQLPYICQFGIV
For the molecule B1, the “protection against lethal sepsis” value in assay [1] is reported as “significant protection”; in assay [1] (listed as N-terminal deletion mutant of TN), “significant protection”; in assay [1] (listed as ΔTN), “protected”. For the same molecule, the “release of neutrophil-attracting chemokines (CXCL1/GRO-α/KC and CXCL5/ENA-78)” value in assay [2] is listed as “specifically stimulated”. Besides, in the assay with HMGB1 release, the “attenuation of LPS/SAA-induced HMGB1 release” value is listed as “dose-dependently attenuated”. Moreover, the “inhibition of SAA-induced HMGB1 release” value is on record as “dose-dependently attenuated” in assay [3] and “dose-dependently inhibited” in assay [3] (listed as ΔTN).
